The source of these data is US5721133.

Test [1] addresses hybrid regulatory protein encoded by plasmid p1009 (GAL4 residues 1-147, functional wild-type Coxsackievirus 3C protease linker, GAL4 residues 768-881) (yeast S. cerevisiae; Coxsackievirus (CVB3)) (UniProt P03313).
For test [2], the target named is hybrid regulatory protein encoded by plasmid pHP236 (GAL4 residues 1-147, functional HIV-1 protease linker, GAL4 residues 768-881) (yeast S. cerevisiae; HIV-1 (λHXB-2 subclone)) (UniProt P04585).

The substance “hybrid regulatory protein encoded by plasmid p1009 (GAL4 residues 1-147, functional wild-type Coxsackievirus 3C protease linker, GAL4 residues 768-881) (from UniProt P03313) (enzyme)” returned a β-Galactosidase Activity (MUG units), GAL1-lacZ reporter in yeast GGY1::171 in test [1] of 14 MUG units.
For the substance “hybrid regulatory protein encoded by plasmid pHP236 (GAL4 residues 1-147, functional HIV-1 protease linker, GAL4 residues 768-881) (from UniProt P04585) (enzyme)”, the β-Galactosidase Activity (MUG units), GAL1-lacZ reporter in yeast GGY1::171 in test [2] was found to be 68 MUG units.
